Laboratory results as given in US20150160214A1, “Quantitation of Cellular Adhesion Dynamics Across Immobilized Receptors Under Rheological Shear Flow” (Mayo Foundation for Medical Education and Research, priority 2013, published 2015).
Values joined by “and” are separate entries in the source; they are usually repeats but may differ in a detail not shown here. Equal values may be shown once.

Columns and labels:
platelet GP1bα = assay: Platelet pause times and translocation velocities on immobilized A1 under shear flow, parallel-plate flow chamber (Example 1); assay type: cell-based, human; conditions: as a function of shear rate
Excerpt: To understand the effect of the N-terminal peptide on the function of the A1-domain of vWF, the protein was expressed with (A1-1238) and without the N-terminal peptide (A1-1261). The inventor used a flow chamber to measure the dynamics of platelet interactions with A1-1238 and A1-1261. Each domain variant was immobilized on glass slides with a modified Cu^2+ chelating chemistry that enabled surface capture via the N-terminally fused histidine tag. This method ensured reproducible capture of the proteins eliminating possible structural issues associated with nonspecific immobilization on plastic or glass. The slides were completely inert to platelets. Next, 1 mL of citrated whole blood followed by Tris buffered saline was perfused at low shear to enable platelets to attach to the surface immobilized domains. After red cells were perfused away with buffer, the translocation of the remaining attached platelets over the surfaces was recorded at each shear rate and the velocities and pause times calculated from the coordinate data of each platelet on the surface as described in the methods. […] In addition, the translocation velocities were increased for A1-1238 relative to A1-1261. To determine if this N-terminal sequence could inhibit the catch bond when free in solution, the inventor incubated surface immobilized A1-1261 with excess free peptide and added the free peptide to 1 mL of whole blood and to our perfusion buffer and performed the assay.
Determination of platelet pause times. Determination of platelet pause times A Glycotech† rectangular parallel-plate flow chamber was mounted to slides with a chelated Cu 21 surface obtained from Microsurfaces Inc. # to which the A1-1261 and A1-1238 domains in TBS were immobilized by the 63His-Tag. Citrated whole blood (1 mL) obtained from informed consent of healthy donors with approval from the Baylor College of Medicine institutional review board followed by buffer was perfused through the chamber at 300s21 for A1-1261 and 700s21 for A1-1238 shear rate to attach platelets to the surface immobilized proteins using a syringe driven variable flow rate pump. The shear was increased incrementally and 1 min movies were recorded at 25 frames/s in phase contrast with 232 pixel binning on a Zeiss Axiocam MRm camera attached to a Zeiss Axio Observer D1 inverted microscope. Tracking analysis was performed using Mediacybernetics ImagePro Premier§. The resulting X-Y coordinate data for each platelet track was differentiated into instantaneous velocities using a Savitzky-Golay algorithm (Savitzky:1964) with a five data point window size and a second-order polynomial implemented into a Mathamatica notebook. These platelet tracks were retained for statistical analysis if the platelet was present for at least 1 s and travelled a total distance greater than 1 lm. Distance travelled in pixels was converted to lm given the camera pixel size=6.45 μm^2, pixel binning, and microscope magnification=400×. Pause times were determined by the amount of time (seconds) a platelets velocity was =0±0.13 μm/s, within the noise. Pause times for all platelet tracks are reported as the mean of the medians. Examples of this analysis for individual platelets and for multiple platelets are provided in the Supporting Information.
Frame by frame platelet trajectory analysis. Tracking coordinates of individual platelets in units of pixels were exported from ImagePro Premier as a text file and imported into a Mathematica notebook that calculates a Savitzky-Golay first derivative of the total distance traveled over time (Savitzky:1964). The distance was calculated from the X and Y coordinates with the following equation.
Pause times were determined from the length of time the platelet velocity remained within 0±4 pixel/sec=0.129 μm/sec as illustrated in FIG. 8B. Median pause times were calculated from velocity time profiles for all platelet tracks, stored in a list and translated to histograms for multiple platelets. […]

[1] = Temperature-induced unfolding by fluorescence and CD, irreversible models (Example 1); assay type: physicochemical
Procedure: A1-1261 and A1-1238 were thermally unfolded using intrinsic protein tyrosine and tryptophan fluorescence with an excitation λ=280 nm and emission λ=359 nm and CD monitored at λ=222 nm. […] As the scan rate increases, the midpoint of the transition (apparent TM) also increases.
Thermal transitions were analyzed in terms of the observed midpoint of the transition, apparent TM, and also by a two-state irreversible model or a three-state irreversible model as described in the Supplement and the calculated parameters are summarized in FIGS. 5A to 5D. […] If the protein unfolding was at equilibrium and reversible, this apparent TM would remain constant at all scan rates. Extrapolation of the TM to a scan rate of 0° Celsius/min provides an indication of where reversible unfolding would occur under equilibrium conditions; 50° Celsius for A1-1238 and 48° Celsius for A1-1261 from both CD and fluorescence data. For the second transition observed by fluorescence that occurs with A1-1238, the TM extrapolates to about 73° Celsius in the limit of zero scan rate. Analysis by the two-state and three-state irreversible models yields an R^2>0.99 for both fluorescence and CD and a transition temperature, T*, that is independent of the temperature scan rate. In addition, the enthalpies of the transitions are independent of scan rate within experimental error FIG. 5B. FIGS. 5C and 5D show the resulting average T* and ΔHT*^‡±the standard deviation obtained from the fitting of the primary thermal transitions in FIG. 4A to 4D for CD and fluorescence and a total average for both methods. […] However, the unfolding enthalpy was statistically larger for A1-1238 (250±15 kJ/mol) than for A1-1261 (204±10 kJ/mol). The average T* and ΔHT*^‡ observed in the second fluorescence transition of A1-1238 is 89.1±2.2° Celsius and 360±14 kJ/mol.
Prior to all spectroscopic thermal scans, protein samples were equilibrated at 10° Celsius for 15 min to obtain a stable baseline. CD thermal scans between 10 and 95° Celsius were recorded at λ=222 nm using a protein concentration of 1 or 2 μM in a 1 cm quartz cell under moderate stirring. Scan rates were 0.5, 1.0, 1.5 and 2.0° Celsius/min. Integration time for each data point was 20 s with a 1 nm bandwidth. Fluorescence thermal scans between 10 and 95 Celsius were recorded at an emission λ=359 nm after excitation λ=280 nm or λ=295 nm using 2 μM protein in a 1 cm quartz cell with moderate stirring. Scan rates were 0.4 or 0.6, 0.9, 1.6 and 2.0° Celsius/min. At each temperature, relative fluorescence intensity was collected for 4 s and averaged. Thermal scans in the presence of N-terminal peptide at 2.0° Celsius/min were preceded by 1 h incubations at 20° Celsius with 0.02-300 μM peptide.
For an irreversible two-state transition, unfolding is kinetically controlled by a first order rate constant that varies with temperature according to the Arrhenius equation (Atkins:1994). In our analysis the inventor refers to the intermediate state as the final irreversible state for all thermal transitions involving the unfolding of A1-1261 in the absence of peptide when monitored by fluoresence, CD and DSC and for A1-1238 when monitored by CD and DSC. The following equations derived below are equally valid for any two state irreversible transitions The activation energy in going from N->I is ΔG^‡=−RT ln k^‡ and the inventor expands ln k^‡ as a function of temperature in terms of Δβ=(β−β*)=(1/RT−1/RT*) using a Taylor series, where T̂* is the temperature at which ΔG^‡=0.

[2] = covalently linked N-terminal peptide

A1-1238: Recombinant human vWF A1 domain, amino acids Q1238-P1471, with N-terminal 6×His-Tag, disulfide intact
Platelet translocation velocities on immobilized domain (comparison) (platelet GP1bα): increased
Apparent TM extrapolated to a scan rate of 0° Celsius/min, primary transition ([1]; CD and fluorescence data): 50 ° Celsius and 49.8±1.2 ° Celsius
Transition temperature T*, primary unfolding transition ([1]; average of CD and fluorescence): 63.9±0.6 ° Celsius
Unfolding enthalpy ΔHT*‡, primary unfolding transition ([1]; average of CD and fluorescence): 59.8 ± 3.59 kcal/mol
Average T*, second fluorescence transition [1, 2]: 89.1±2.2 ° Celsius
Average ΔHT*‡, second fluorescence transition [1, 2]: 86 ± 3.35 kcal/mol
Apparent TM extrapolated to zero scan rate, second transition by fluorescence ([1]; fluorescence): about 73 ° Celsius
